T1: human CCR4 (human, UniProt P51679 1-360)
T1 construct: also called hCCR4; human CCR4+ cells
T1 sequence: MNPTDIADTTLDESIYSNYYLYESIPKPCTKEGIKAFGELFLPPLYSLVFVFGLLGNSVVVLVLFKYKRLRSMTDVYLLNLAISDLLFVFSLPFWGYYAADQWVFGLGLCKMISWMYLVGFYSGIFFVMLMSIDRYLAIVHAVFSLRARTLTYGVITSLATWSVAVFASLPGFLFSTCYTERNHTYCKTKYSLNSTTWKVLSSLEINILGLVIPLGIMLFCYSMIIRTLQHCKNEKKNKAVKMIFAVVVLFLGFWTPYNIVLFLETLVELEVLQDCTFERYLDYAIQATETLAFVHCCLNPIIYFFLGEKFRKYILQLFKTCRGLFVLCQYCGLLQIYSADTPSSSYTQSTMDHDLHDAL


molecular target: T2, human CCR8 (human, UniProt P51685 1-355); assay: cell-based or functional assay
T2 sequence (P51685 whole entry): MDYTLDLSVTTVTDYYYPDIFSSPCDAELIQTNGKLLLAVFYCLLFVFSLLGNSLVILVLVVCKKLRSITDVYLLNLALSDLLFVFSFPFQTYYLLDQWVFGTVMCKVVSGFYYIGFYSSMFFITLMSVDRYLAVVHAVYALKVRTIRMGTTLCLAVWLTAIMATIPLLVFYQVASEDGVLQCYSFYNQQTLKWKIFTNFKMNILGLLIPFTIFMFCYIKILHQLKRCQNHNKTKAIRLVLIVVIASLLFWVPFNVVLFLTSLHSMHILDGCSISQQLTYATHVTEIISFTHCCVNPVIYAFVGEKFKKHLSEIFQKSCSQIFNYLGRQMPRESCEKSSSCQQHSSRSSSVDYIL

ADCC EC50 (nM), NK92-CD16A effectors, HEK293-hCCR8 targets, LDH release	Binder
0.1 nM	29A8 anti-CCR8 chimeric antibody (antibody, V domains shown) VH: EVQLVESGGGLVQPKGSLKLSCAASGFTFNAFAMNWVRQAPGKGLEWVARIRSKSNNYATYYADSVIDRFTISRDDSQSMLYLQMNNLKTEDTAMYYCVRGKEAGAYYAMDYWGQGTSVTVSS VL: DIVMTQAAPSVPVTPGESVSISCRSSKSLLHSNGNTYLYWFLQRPGQSPQLLIYRMSNLASGVPDRFSGSGSGTAFTLRISKVEAEDVGVYYCMQHLEYPFTFGGGTKLEIK
0.21 nM	30A7 anti-CCR8 chimeric antibody (antibody, V domains shown) VH: QVQLVESGGGLVQPKGSLKLSCAASGFTFNTYAMNWVRQAPGKGLEWVARIRSKSNYYATYYADSVKDRFTISRDDSQSMLYLQMNNLKTEDTAMYYCLRGKEAGAYYAMDYWGQGTSVTVSS VL: DIVMTQAAPSVPVTPGESVSISCRSSKSLLHSNGNTYLYWFLQRPGQSPQLLIYRMSNLASGVPDRFSGSGSGTAFTLRISRVEAEDVGVYYCMQHLEYPFTFGAGTKLEIK

molecular target: T2, human CCR8; assay: flow cytometry, chimeric IgG on CHO-hCCR8 cells
Description: 5×10⁴ CHO-hCCR8 or CHO-cynoCCR8 cells were added per well in a 96-well U-shaped plate and centrifuged to discard the supernatant, 100 μL of a gradiently diluted anti-CCR8 chimeric antibody or anti-KLH isotype control antibody was added per well and the mixture was incubated on ice for 60 minutes. After the unbound primary antibody was washed away, 50 μL of a secondary antibody AlexaFluro647 anti-human IgG (Jackson Immuno Research #109-606-170) was added per well and the mixture was incubated on ice for 30 minutes. After the washing, 50 μL of 5 μg/mL of a PI/BSA solution was added to each well and the mixture was incubated on ice for 5 minutes. Then excess secondary antibody was washed away with 0.5% BSA, the cells were resuspended by adding a PBS solution, and binding of the antibody to the cells was detected using a flow cytometer (Intellicyte iQue). The fluorescence value of a Pi-negative cell population was analyzed. Cell-binding curves were fitted by Graphpad Prism 7 (FIG. 2). The chimeric antibodies of 87D8, 102H5, 109F6, 110G2, 113B3, 139A9, 144D2, etc. all bound with high affinities to human CCR8+ cells CHO-hCCR8 and cynomolgus monkey CCR8+ cells CHO-cynoCCR8.

EC50	Binder
3.24 nM	29A8 anti-CCR8 chimeric antibody (antibody, V domains shown) VH: EVQLVESGGGLVQPKGSLKLSCAASGFTFNAFAMNWVRQAPGKGLEWVARIRSKSNNYATYYADSVIDRFTISRDDSQSMLYLQMNNLKTEDTAMYYCVRGKEAGAYYAMDYWGQGTSVTVSS VL: DIVMTQAAPSVPVTPGESVSISCRSSKSLLHSNGNTYLYWFLQRPGQSPQLLIYRMSNLASGVPDRFSGSGSGTAFTLRISKVEAEDVGVYYCMQHLEYPFTFGGGTKLEIK
3.39 nM	30A7 anti-CCR8 chimeric antibody (antibody, V domains shown) VH: QVQLVESGGGLVQPKGSLKLSCAASGFTFNTYAMNWVRQAPGKGLEWVARIRSKSNYYATYYADSVKDRFTISRDDSQSMLYLQMNNLKTEDTAMYYCLRGKEAGAYYAMDYWGQGTSVTVSS VL: DIVMTQAAPSVPVTPGESVSISCRSSKSLLHSNGNTYLYWFLQRPGQSPQLLIYRMSNLASGVPDRFSGSGSGTAFTLRISRVEAEDVGVYYCMQHLEYPFTFGAGTKLEIK

molecular target: T2, human CCR8; assay: flow cytometry, purified Fab on CHO-hCCR8 cells

EC50	Binder
4.85 nM	144D2 M56G (Fab, V domains shown, Purified Fab mutant) VH: EVQLVESGGGLVQPKGSLKLSCAASGFTFNAFAMNWVRQAPGKGLEWVARIRSKSNNYATYYADSVIDRFTISRDDSQSMLYLQMNNLKTEDTAMYYCVRGKEAGAYYAMDYWGQGTSVTVSS VL: DIVMTQAAPSVPVTPGESVSISCRSSKSLLHSNGNTYLYWFLQRPGQSPQLLIYRGSNLASGVPDRFSGSGSGTAFTLRISRVEAEDVGVYYCMQHLEYPLTFGAGTKLEIK
5.72 nM	144D2 N33V (Fab, V domains shown, Purified Fab mutant) VH: EVQLVESGGGLVQPKGSLKLSCAASGFTFNAFAMNWVRQAPGKGLEWVARIRSKSNNYATYYADSVIDRFTISRDDSQSMLYLQMNNLKTEDTAMYYCVRGKEAGAYYAMDYWGQGTSVTVSS VL: DIVMTQAAPSVPVTPGESVSISCRSSKSLLHSVGNTYLYWFLQRPGQSPQLLIYRMSNLASGVPDRFSGSGSGTAFTLRISRVEAEDVGVYYCMQHLEYPLTFGAGTKLEIK
2.22 nM	144D2 G34Y (Fab, V domains shown, Purified Fab mutant) VH: EVQLVESGGGLVQPKGSLKLSCAASGFTFNAFAMNWVRQAPGKGLEWVARIRSKSNNYATYYADSVIDRFTISRDDSQSMLYLQMNNLKTEDTAMYYCVRGKEAGAYYAMDYWGQGTSVTVSS VL: DIVMTQAAPSVPVTPGESVSISCRSSKSLLHSNYNTYLYWFLQRPGQSPQLLIYRMSNLASGVPDRFSGSGSGTAFTLRISRVEAEDVGVYYCMQHLEYPLTFGAGTKLEIK
4.71 nM	144D2 M56A (Fab, V domains shown, Purified Fab mutant) VH: EVQLVESGGGLVQPKGSLKLSCAASGFTFNAFAMNWVRQAPGKGLEWVARIRSKSNNYATYYADSVIDRFTISRDDSQSMLYLQMNNLKTEDTAMYYCVRGKEAGAYYAMDYWGQGTSVTVSS VL: DIVMTQAAPSVPVTPGESVSISCRSSKSLLHSNGNTYLYWFLQRPGQSPQLLIYRASNLASGVPDRFSGSGSGTAFTLRISRVEAEDVGVYYCMQHLEYPLTFGAGTKLEIK
13.8 nM	144D2 N33Y (Fab, V domains shown, Purified Fab mutant) VH: EVQLVESGGGLVQPKGSLKLSCAASGFTFNAFAMNWVRQAPGKGLEWVARIRSKSNNYATYYADSVIDRFTISRDDSQSMLYLQMNNLKTEDTAMYYCVRGKEAGAYYAMDYWGQGTSVTVSS VL: DIVMTQAAPSVPVTPGESVSISCRSSKSLLHSYGNTYLYWFLQRPGQSPQLLIYRMSNLASGVPDRFSGSGSGTAFTLRISRVEAEDVGVYYCMQHLEYPLTFGAGTKLEIK
6.75 nM	144D2 N33R (Fab, V domains shown, Purified Fab mutant) VH: EVQLVESGGGLVQPKGSLKLSCAASGFTFNAFAMNWVRQAPGKGLEWVARIRSKSNNYATYYADSVIDRFTISRDDSQSMLYLQMNNLKTEDTAMYYCVRGKEAGAYYAMDYWGQGTSVTVSS VL: DIVMTQAAPSVPVTPGESVSISCRSSKSLLHSRGNTYLYWFLQRPGQSPQLLIYRMSNLASGVPDRFSGSGSGTAFTLRISRVEAEDVGVYYCMQHLEYPLTFGAGTKLEIK
6.68 nM	144D2 N33I (Fab, V domains shown, Purified Fab mutant) VH: EVQLVESGGGLVQPKGSLKLSCAASGFTFNAFAMNWVRQAPGKGLEWVARIRSKSNNYATYYADSVIDRFTISRDDSQSMLYLQMNNLKTEDTAMYYCVRGKEAGAYYAMDYWGQGTSVTVSS VL: DIVMTQAAPSVPVTPGESVSISCRSSKSLLHSIGNTYLYWFLQRPGQSPQLLIYRMSNLASGVPDRFSGSGSGTAFTLRISRVEAEDVGVYYCMQHLEYPLTFGAGTKLEIK
3.16 nM	144D2 G34V (Fab, V domains shown, Purified Fab mutant) VH: EVQLVESGGGLVQPKGSLKLSCAASGFTFNAFAMNWVRQAPGKGLEWVARIRSKSNNYATYYADSVIDRFTISRDDSQSMLYLQMNNLKTEDTAMYYCVRGKEAGAYYAMDYWGQGTSVTVSS VL: DIVMTQAAPSVPVTPGESVSISCRSSKSLLHSNVNTYLYWFLQRPGQSPQLLIYRMSNLASGVPDRFSGSGSGTAFTLRISRVEAEDVGVYYCMQHLEYPLTFGAGTKLEIK
8.27 nM	144D2 N33A (Fab, V domains shown, Purified Fab mutant from E. coli TG1, Ni-NTA purified) VH: EVQLVESGGGLVQPKGSLKLSCAASGFTFNAFAMNWVRQAPGKGLEWVARIRSKSNNYATYYADSVIDRFTISRDDSQSMLYLQMNNLKTEDTAMYYCVRGKEAGAYYAMDYWGQGTSVTVSS VL: DIVMTQAAPSVPVTPGESVSISCRSSKSLLHSAGNTYLYWFLQRPGQSPQLLIYRMSNLASGVPDRFSGSGSGTAFTLRISRVEAEDVGVYYCMQHLEYPLTFGAGTKLEIK
2.69 nM	144D2 M56T (Fab, V domains shown, Purified Fab mutant) VH: EVQLVESGGGLVQPKGSLKLSCAASGFTFNAFAMNWVRQAPGKGLEWVARIRSKSNNYATYYADSVIDRFTISRDDSQSMLYLQMNNLKTEDTAMYYCVRGKEAGAYYAMDYWGQGTSVTVSS VL: DIVMTQAAPSVPVTPGESVSISCRSSKSLLHSNGNTYLYWFLQRPGQSPQLLIYRTSNLASGVPDRFSGSGSGTAFTLRISRVEAEDVGVYYCMQHLEYPLTFGAGTKLEIK
2.83 nM	144D2 G34T (Fab, V domains shown, Purified Fab mutant) VH: EVQLVESGGGLVQPKGSLKLSCAASGFTFNAFAMNWVRQAPGKGLEWVARIRSKSNNYATYYADSVIDRFTISRDDSQSMLYLQMNNLKTEDTAMYYCVRGKEAGAYYAMDYWGQGTSVTVSS VL: DIVMTQAAPSVPVTPGESVSISCRSSKSLLHSNTNTYLYWFLQRPGQSPQLLIYRMSNLASGVPDRFSGSGSGTAFTLRISRVEAEDVGVYYCMQHLEYPLTFGAGTKLEIK
3.87 nM	144D2 G34I (Fab, V domains shown, Purified Fab mutant) VH: EVQLVESGGGLVQPKGSLKLSCAASGFTFNAFAMNWVRQAPGKGLEWVARIRSKSNNYATYYADSVIDRFTISRDDSQSMLYLQMNNLKTEDTAMYYCVRGKEAGAYYAMDYWGQGTSVTVSS VL: DIVMTQAAPSVPVTPGESVSISCRSSKSLLHSNINTYLYWFLQRPGQSPQLLIYRMSNLASGVPDRFSGSGSGTAFTLRISRVEAEDVGVYYCMQHLEYPLTFGAGTKLEIK
1.34 nM	144D2 G34R (Fab, V domains shown, Purified Fab mutant) VH: EVQLVESGGGLVQPKGSLKLSCAASGFTFNAFAMNWVRQAPGKGLEWVARIRSKSNNYATYYADSVIDRFTISRDDSQSMLYLQMNNLKTEDTAMYYCVRGKEAGAYYAMDYWGQGTSVTVSS VL: DIVMTQAAPSVPVTPGESVSISCRSSKSLLHSNRNTYLYWFLQRPGQSPQLLIYRMSNLASGVPDRFSGSGSGTAFTLRISRVEAEDVGVYYCMQHLEYPLTFGAGTKLEIK

molecular target: T1, human CCR4; assay: flow cytometry of purified Fab on cells stably expressing human CCR4
Description: The positive clones obtained in example 1 were re-induced to express and purified to obtain a Fab antibody. The binding to cells stably expressing human CCR8, cynomolgus monkey CCR8 and human CCR4 was tested respectively, 5×10⁴ test cells were added to each well of a 96-well U-shaped plate and centrifuged to discard the supernatant, 100 μL/well of the purified Fab antibody was added and the mixture was incubated on ice for 60 minutes. After washing away the unbound primary antibody, 50 μL of a secondary antibody solution (Anti-human IgG, F(ab′)2-AF647, Jackson Immuno Research) was added to each well and the mixture was incubated on ice for 30 minutes. After washing, 50 μL of a PI/BSA solution at 5 μg/mL was added to each well and the mixture was incubated on ice for 5 minutes. Then excess secondary antibody was washed away with 0.5% BSA, the cells were resuspended by adding a PBS solution, and binding of the antibody to the cells was detected using a flow cytometer (Intellicyte iQue).

binding result	Binder
no binding	87D8 Fab antibody (Fab, V domains shown, also called clone 87D8) VH: EVQLVESGGGLVQPKGSLRLSCAASGFTFNTYAMNWVRQAPGKGLEWIARIRSKSNNYATYYADSVKDRFTISRDDSQSMLYLQMNNLKTEDTAMYYCVRGKEAGAYYAMDYWGQGTSVTVSS VL: DIVMTQAAPSVPVTPGESVSISCRSSKSLLHSNGNTYLYWFLQRPGQSPQLLIYRMSNLASGVPDRFSGSGSGTAFTLRISRVEAEDVGVYYCMQHLEYPLTFGAGTKLELK

Source: patent US20250215097A1 (BEIJING TIANNUOJIANCHENG PHARMA TECH, published 2025)
